Reference: patent publication US20240336672A1

Assays:
Conditions in all cases: remark: other sources report otherwise
[1] = molecular target: SARS-CoV-2 delta plus variant RBD (SARS-CoV-2); assay: ELISA
[2] = molecular target: T1, SARS-CoV-2 delta variant B.1.617.2/3 RBD domain (SARS-CoV-2); assay: ELISA
[3] = molecular target: T2, SARS-CoV-2 kappa variant B.1.617.1/3 RBD domain (SARS-CoV-2); assay: ELISA
[4] = molecular target: T3, SARS-CoV-2 omicron variant B.1.1.529 RBD domain (SARS-CoV-2); assay: ELISA; set-up: unit not given beside the values
[5] = molecular target: T4, SARS-CoV-2 omicron variant B.1.1.529 Spike ectodomain (tri-S, HexaPro) (SARS-CoV-2), P0DTC2; assay: ELISA; set-up: unit not given beside the values
[6] = molecular target: SARS-CoV-2 delta plus variant RBD (SARS-CoV-2); assay: ELISA; set-up: unit not given beside the values
[7] = molecular target: T1, SARS-CoV-2 delta variant B.1.617.2/3 …; assay: ELISA; set-up: unit not given beside the values
[8] = molecular target: T2, SARS-CoV-2 kappa variant B.1.617.1/3 …; assay: ELISA; set-up: unit not given beside the values
[9] = molecular target: SARS-CoV-2 delta plus variant RBD (SARS-CoV-2); assay: ELISA; set-up: unit not given beside the values; remark: listed apart in the source
[10] = molecular target: T1, SARS-CoV-2 delta variant B.1.617.2/3 …; assay: ELISA; set-up: unit not given beside the values; remark: listed apart in the source
[11] = molecular target: T2, SARS-CoV-2 kappa variant B.1.617.1/3 …; assay: ELISA; set-up: unit not given beside the values; remark: listed apart in the source
[12] = molecular target: SARS-CoV-2 delta plus variant RBD (SARS-CoV-2); assay: RBD/ACE2 blocking ELISA
[13] = molecular target: T1, SARS-CoV-2 delta variant B.1.617.2/3 …; assay: RBD/ACE2 blocking ELISA
[14] = molecular target: T2, SARS-CoV-2 kappa variant B.1.617.1/3 …; assay: RBD/ACE2 blocking ELISA
[15] = molecular target: SARS-CoV-2 delta plus variant RBD (SARS-CoV-2); assay: RBD-ACE2 competition ELISA; set-up: unit not given beside the values
[16] = molecular target: T1, SARS-CoV-2 delta variant B.1.617.2/3 …; assay: RBD-ACE2 competition ELISA; set-up: unit not given beside the values
[17] = molecular target: T2, SARS-CoV-2 kappa variant B.1.617.1/3 …; assay: RBD-ACE2 competition ELISA; set-up: unit not given beside the values
[18] = molecular target: T4, SARS-CoV-2 omicron variant B.1.1.529 …; assay: tri-S/ACE2 blocking ELISA [B]
[19] = molecular target: SARS-CoV-2 Omicron subvariant BA.2 RBD (SARS-CoV-2); assay: competition ELISA, biotinylated RBD to immobilized ACE2 ectodomain
[20] = molecular target: SARS-CoV-2 delta plus variant RBD (SARS-CoV-2); assay: as above
[21] = molecular target: T1, SARS-CoV-2 delta variant B.1.617.2/3 …; assay: as above
[22] = molecular target: T2, SARS-CoV-2 kappa variant B.1.617.1/3 …; assay: as above
[23] = molecular target: T3, SARS-CoV-2 omicron variant B.1.1.529 …; assay: as above
[24] = molecular target: T4, SARS-CoV-2 omicron variant B.1.1.529 …; assay: competition ELISA, biotinylated tri-S to immobilized ACE2 ectodomain
[25] = molecular target: T3, SARS-CoV-2 omicron variant B.1.1.529 …; assay: ELISA; unit from paragraph 452, none printed in the heatmap

Row | Binder | OD405nm [1] | OD405nm [3] | AUC [4] | AUC [5] | AUC [6] | AUC [7] | AUC [8] | AUC (RBD bind.) [9] | AUC (RBD bind.) [10] | AUC (RBD bind.) [11] | % binding inhibition [12] | % binding inhibition [13] | % binding inhibition [14] | AUC (RBD block.) [15] | AUC (RBD block.) [16] | AUC (RBD block.) [17] | AUC of blocking [18] | further results
1 | Cv2.3194 (recombinant human IgG1) (antibody) heavy: EVQLVESGGGLIQPGGSLRLSCAASGITVTSNYMSWVRQAPGKGLEWVSVIYPGGSTFYADSVKGRFTISRDNSKNTLYLQMNSLRAEDTAVYYCARDLVVYGMDVWGQGTTVTVSSASTKGPSVFPLAPSSKSTSGGTAALGCLVKDYFPEPVTVSWNSGALTSGVHTFPAVLQSSGLYSLSSVVTVPSSSLGTQTYICNVNHKPSNTKVDKKVEPKSCDKTHTCPPCPAPELLGGPSVFLFPPKPKDTLMISRTPEVTCVVVDVSHEDPEVKFNWYVDGVEVHNAKTKPREEQYNSTYRVVSVLTVLHQDWLNGKEYKCKVSNKALPAPIEKTISKAKQPREPQVYTLPPSRDELTKNQVSLTCLVKGFYPSDIAVEWESNGQPENNYKTTPPVLDSDGSFFLYSKLTVDKSRWQQGNVFSCSVMHEALHNHYTQKSLSLSPGK light: EIVLTQSPGTLSLSPGERATLSCRASQSVSSSYLAWYQQKPGQAPRLLIYGASSRATGIPGRFSGSGSGTDFTLTISRLEPEDFAIYYCQQGVTFGGGTKVEIKRTVAAPSVFIFPPSDEQLKSGTASVVCLLNNFYPREAKVQWKVDNALQSGNSQESVTEQDSKDSTYSLSSTLTLSKADYEKHKVYACEVTHQGLSSPVTKSFNRGEC | 3.5 | 3.6 | 10 | 12 | 3 | 3 | 4 | 13 | 13 | 13 | 94% | 94% | 92% | 141 | 102 | 128 | 76 | OD405nm [2]: 3.4; IC50 [19]: 2.71 µg/mL; IC90 [19]: 29.1 µg/mL; IC50 [20]: 0.28 µg/mL; IC90 [20]: 0.967 µg/mL; IC50 [21]: 0.827 µg/mL; IC90 [21]: 1.31 µg/mL; IC50 [22]: 0.469 µg/mL; IC90 [22]: 1.1 µg/mL; IC50 [23]: 6.53 µg/mL; IC90 [23]: 37.6 µg/mL; IC50 [24]: 0.876 µg/mL; IC90 [24]: 1.2 µg/mL
2 | Cv2.1353 (recombinant human IgG1) (antibody) heavy: EVQLVESGGGLVQPGGSLRLSCAASGVTVSSNYMNWVRQAPGKGLEWVSVIYSGGSTFYADSVKGRFIISRDNSKNTLYLQMNSLKTEDTAVYYCARDLGPMGFDIWGQGTMVTVSSASTKGPSVFPLAPSSKSTSGGTAALGCLVKDYFPEPVTVSWNSGALTSGVHTFPAVLQSSGLYSLSSVVTVPSSSLGTQTYICNVNHKPSNTKVDKKVEPKSCDKTHTCPPCPAPELLGGPSVFLFPPKPKDTLMISRTPEVTCVVVDVSHEDPEVKFNWYVDGVEVHNAKTKPREEQYNSTYRVVSVLTVLHQDWLNGKEYKCKVSNKALPAPIEKTISKAKQPREPQVYTLPPSRDELTKNQVSLTCLVKGFYPSDIAVEWESNGQPENNYKTTPPVLDSDGSFFLYSKLTVDKSRWQQGNVFSCSVMHEALHNHYTQKSLSLSPGK light: DIQMTQSPSFLSASVGDRVTITCRASQGISSYLAWYQQKPGKAPKLLIYAASTLQSGVPSRFSGSGSGTEFTLTISSLQPEDFATYYCQQLNSDPPVTFGPGTKVDIKRTVAAPSVFIFPPSDEQLKSGTASVVCLLNNFYPREAKVQWKVDNALQSGNSQESVTEQDSKDSTYSLSSTLTLSKADYEKHKVYACEVTHQGLSSPVTKSFNRGEC |  |  | 3 | 7 |  |  |  | 13 | 13 | 13 |  |  |  | 142 | 97 | 112 | 4 | 
3 | Cv2.3235 (recombinant human IgG1) (antibody) heavy: EVQLVESGGGLIQPGGSLRLSCAASGFTVSRNYMSWVRQAPGKGLEWVSVIYSGGSTFYADSVKGRFTISRDNSKNTLYLQMNSLRAEDTAVYYCARDGDYYGMDVWGQGTTVTVSSASTKGPSVFPLAPSSKSTSGGTAALGCLVKDYFPEPVTVSWNSGALTSGVHTFPAVLQSSGLYSLSSVVTVPSSSLGTQTYICNVNHKPSNTKVDKKVEPKSCDKTHTCPPCPAPELLGGPSVFLFPPKPKDTLMISRTPEVTCVVVDVSHEDPEVKFNWYVDGVEVHNAKTKPREEQYNSTYRVVSVLTVLHQDWLNGKEYKCKVSNKALPAPIEKTISKAKQPREPQVYTLPPSRDELTKNQVSLTCLVKGFYPSDIAVEWESNGQPENNYKTTPPVLDSDGSFFLYSKLTVDKSRWQQGNVFSCSVMHEALHNHYTQKSLSLSPGK light: DIQMTQSPSFLSASVGDRVTITCRASQGISSFLAWYQQKPGKAPKLLIYGASTLQSGVTSRFSGSGSGTEFTLTISSLQPEDFATYYCQRLDSYPPITFGQGTRLEIKRTVAAPSVFIFPPSDEQLKSGTASVVCLLNNFYPREAKVQWKVDNALQSGNSQESVTEQDSKDSTYSLSSTLTLSKADYEKHKVYACEVTHQGLSSPVTKSFNRGEC |  |  | 1 | 1 |  |  |  | 6 | 13 | 12 |  |  |  | 9 | 71 | 111 | 0 | EC50 (read off the curve) [1]: 0.3 µg/mL
4 | COV2-2130 (antibody, V domains shown) VH: EVQLVESGGGLVKPGGSLRLSCAASGFTFRDVWMSWVRQAPGKGLEWVGRIKSKIDGGTTDYAAPVKGRFTISRDDSKNTLYLQMNSLKTEDTAVYYCTTAGSYYYDTVGPGLPEGKFDYWGQGTLVTVSS VL: not shown |  |  |  |  | 3 | 3 | 4 |  |  |  | 88% | 77% |  |  |  |  |  | 
5 | ADG-2 (antibody, V domains shown) VH: EVQLVESGGGLVKPGGSLRLSCAASGFTFSSYYMNWVRQAPGKGLEWVSSISEDGYSTYYPDSLKGRFTISRDSAKNSLYLQMNSLRADDTAVYYCARDFSGHTAWAGTGFEYWGQGTLVTVSS VL: QSVLTQPPSVSGAPGQRITISCTGSSSNIGAGYDVHWYQQLPGTAPKLLIYGSSSRNSGVPDRFSGSKSGTSASLAITGLQAEDEADYYCQSYDSSLSVLYTFGTGTKVTVL |  |  |  |  | 3 | 3 | 4 |  |  |  | 80% | 96% | 95% |  |  |  |  | 
6 | Cilgavimab (antibody, V domains shown) VH: EVQLVESGGGLVKPGGSLRLSCAASGFTFRDVWMSWVRQAPGKGLEWVGRIKSKIDGGTTDYAAPVKGRFTISRDDSKNTLYLQMNSLKTEDTAVYYCTTAGSYYYDTVGPGLPEGKFDYWGQGTLVTVSS VL: not shown | 3.5 | 3.7 |  |  |  |  |  |  |  |  |  |  |  |  |  |  |  | EC50 [25]: 0.027 µg/mL
